Assay results as given in patent US20220409701A1, “PROCESS FOR PRODUCING A TABLET COMPRISING GLP-1 PEPTIDES” (Novo Nordisk A/S, priority 2019, published 2022).

Test: Isoelectric point (pI) of the GLP-1 peptide
Type: physicochemical
Settings: pH value where the peptide carries no net charge
Description: Exemplary non-volatile bases are sodium hydroxide, potassium hydroxide, buffers selected from e.g. a phosphate buffer, a TRIS buffer, an acetate buffer. The ‘pI’ as used herein refers to the isoelectric point of the GLP-1 peptide, i.e. the pH value where the peptide carried no net charge.

| Substance | pI |
| --- | --- |
| N^6,26-{18-[N-(17-carboxyheptadecanoyl)-L-γ-glutamyl]-10-oxo-3,6,12,15-tetraoxa-9,18-diazaoctadecanoyl}-[8-(2-amino-2-propanoic acid), 34-L-arginine]human glucagon-like peptide 1(7-37) [semaglutide] | about 5.4 |
| Nε27-[2-[2-[2-[[2-[2-[2-[[(4S)-4-carboxy-4-[10-(4-carboxyphenoxy)decanoylamino]butanoyl]amino]ethoxy]ethoxy]acetyl]amino]ethoxy]ethoxy]acetyl], Nε36-[2-[2-[2-[[2-[2-[2-[[(4S)-4-carboxy-4-[10-(4-carboxyphenoxy)decanoylamino]butanoyl]amino]ethoxy]ethoxy]acetyl]amino]ethoxy]ethoxy]a cetyl]-[Aib8,Glu22,Arg26,Lys27,Glu30,Arg34,Lys36]-GLP-1-(7-37)-peptidyl-Glu-Gly [Compound A] | about 4.6 |
